Patent publication US20070060521A1

Molecular target: IL-6 receptor on U266 human myeloma cells (human) (UniProt P08887)
Assay: cell-based or functional assay

Chain of IL-6 receptor on U266 human myeloma cells (human) (P08887 20-468): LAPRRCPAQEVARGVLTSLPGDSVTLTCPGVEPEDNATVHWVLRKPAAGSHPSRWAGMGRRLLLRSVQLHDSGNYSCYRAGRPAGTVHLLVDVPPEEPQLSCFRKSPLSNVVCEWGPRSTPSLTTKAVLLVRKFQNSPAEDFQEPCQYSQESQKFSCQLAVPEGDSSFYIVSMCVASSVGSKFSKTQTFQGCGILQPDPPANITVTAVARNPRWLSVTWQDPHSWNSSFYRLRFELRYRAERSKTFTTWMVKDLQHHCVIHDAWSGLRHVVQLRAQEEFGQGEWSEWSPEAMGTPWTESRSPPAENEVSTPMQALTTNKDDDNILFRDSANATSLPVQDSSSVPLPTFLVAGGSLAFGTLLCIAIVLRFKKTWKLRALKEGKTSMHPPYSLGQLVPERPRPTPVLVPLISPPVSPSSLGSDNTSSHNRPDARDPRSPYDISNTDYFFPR

Q: Sant7, IL-6 superantagonist (ligand) was tested. Which reduction of constitutive STAT3 DNA-binding (EMSA) in U266 cells did it give?
A: 70%
